B1: Tumor necrosis factor alpha-induced protein 3 (Homo sapiens), P21580 (parent)
chain: MAEQVLPQALYLSNMRKAVKIRERTPEDIFKPTNGIIHHFKTMHRYTLEMFRTCQFCPQFREIIHKALIDRNIQATLESQKKLNWCREVRKLVALKTNGDGNCLMHATSQYMWGVQDTDLVLRKALFSTLKETDTRNFKFRWQLESLKSQEFVETGLCYDTRNWNDEWDNLIKMASTDTPMARSGLQYNSLEEIHIFVLCNILRRPIIVISDKMLRSLESGSNFAPLKVGGIYLPLHWPAQECYRYPIVLGYDSHHFVPLVTLKDSGPEIRAVPLVNRDRGRFEDLKVHFLTDPENEMKEKLLKEYLMVIEIPVQGWDHGTTHLINAAKLDEANLPKEINLVDDYFELVQHEYKKWQENSEQGRREGHAQNPMEPSVPQLSLMDVKCETPNCPFFMSVNTQPLCHECSERRQKNQNKLPKLNSKPGPEGLPGMALGASRGEAYEPLAWNPEESTGGPHSAPPTAPSPFLFSETTAMKCRSPGCPFTLNVQHNGFCERCHNARQLHASHAPDHTRHLDPGKCQACLQDVTRTFNGICSTCFKRTTAEASSSLSTSLPPSCHQRSKSDPSRLVRSPSPHSCHRAGNDAPAGCLSQAARTPGDRTGTSKCRKAGCVYFGTPENKGFCTLCFIEYRENKHFAAASGKVSPTASRFQNTIPCLGRECGTLGSTMFEGYCQKCFIEAQNQRFHEAKRTEEQLRSSQRRDVPRTTQSTSRPKCARASCKNILACRSEELCMECQHPNQRMGPGAHRGEPAPEDPPKQRCRAPACDHFGNAKCNGYCNECFQFKQMYG

Variants of: B1
Settings: with ATG16L1, Q676U5-1
Sequence of ATG16L1, Q676U5-1 (Q676U5 whole entry): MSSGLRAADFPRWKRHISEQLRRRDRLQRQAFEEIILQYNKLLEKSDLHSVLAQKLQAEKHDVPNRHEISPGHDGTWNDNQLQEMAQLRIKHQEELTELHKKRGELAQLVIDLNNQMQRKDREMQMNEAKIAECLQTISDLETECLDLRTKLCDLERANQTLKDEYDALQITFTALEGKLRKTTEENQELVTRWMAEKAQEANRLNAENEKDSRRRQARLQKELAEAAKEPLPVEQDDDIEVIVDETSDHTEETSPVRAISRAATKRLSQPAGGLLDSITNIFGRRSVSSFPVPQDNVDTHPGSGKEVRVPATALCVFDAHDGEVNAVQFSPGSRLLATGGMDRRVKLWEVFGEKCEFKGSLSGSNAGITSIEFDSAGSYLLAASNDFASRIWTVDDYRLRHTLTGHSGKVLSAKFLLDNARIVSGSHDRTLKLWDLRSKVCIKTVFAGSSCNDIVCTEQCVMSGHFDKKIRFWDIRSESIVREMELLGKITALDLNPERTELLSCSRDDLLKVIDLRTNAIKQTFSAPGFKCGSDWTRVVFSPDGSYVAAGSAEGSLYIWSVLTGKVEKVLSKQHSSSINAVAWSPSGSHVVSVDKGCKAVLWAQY

Effect of a mutation on the interaction, with no effect:
F257A;L260A
F127A;L130A
F127C
A125V
F224A;L227A
Y233A;L236A
W168A;L171A
Y188A;L191A
Y246A;V249A

Source: IntAct's records for PubMed 31015422
